In article PMC8634136 (The EMBO Journal, 2021):

Target: T1, CLASPIN (human, UniProt Q9HAW4 1-1339)
T1 construct: CLASPIN, human; Only residues 284-319, 525-540 and 592-618 are modelled in the structure; source: Hi5 insect cells (baculovirus), purified (Flag M2, Superose 6)
Test: cryo-EM structure; replisome reconstituted on fork DNA with AMP-PNP, isolated on a glycerol gradient with glutaraldehyde and BS3; 3.2 Å overall; a sample without CLASPIN solved at 3.4 Å
Details: both partners purified

T1 sequence (Q9HAW4 whole entry, the tested form may be a part): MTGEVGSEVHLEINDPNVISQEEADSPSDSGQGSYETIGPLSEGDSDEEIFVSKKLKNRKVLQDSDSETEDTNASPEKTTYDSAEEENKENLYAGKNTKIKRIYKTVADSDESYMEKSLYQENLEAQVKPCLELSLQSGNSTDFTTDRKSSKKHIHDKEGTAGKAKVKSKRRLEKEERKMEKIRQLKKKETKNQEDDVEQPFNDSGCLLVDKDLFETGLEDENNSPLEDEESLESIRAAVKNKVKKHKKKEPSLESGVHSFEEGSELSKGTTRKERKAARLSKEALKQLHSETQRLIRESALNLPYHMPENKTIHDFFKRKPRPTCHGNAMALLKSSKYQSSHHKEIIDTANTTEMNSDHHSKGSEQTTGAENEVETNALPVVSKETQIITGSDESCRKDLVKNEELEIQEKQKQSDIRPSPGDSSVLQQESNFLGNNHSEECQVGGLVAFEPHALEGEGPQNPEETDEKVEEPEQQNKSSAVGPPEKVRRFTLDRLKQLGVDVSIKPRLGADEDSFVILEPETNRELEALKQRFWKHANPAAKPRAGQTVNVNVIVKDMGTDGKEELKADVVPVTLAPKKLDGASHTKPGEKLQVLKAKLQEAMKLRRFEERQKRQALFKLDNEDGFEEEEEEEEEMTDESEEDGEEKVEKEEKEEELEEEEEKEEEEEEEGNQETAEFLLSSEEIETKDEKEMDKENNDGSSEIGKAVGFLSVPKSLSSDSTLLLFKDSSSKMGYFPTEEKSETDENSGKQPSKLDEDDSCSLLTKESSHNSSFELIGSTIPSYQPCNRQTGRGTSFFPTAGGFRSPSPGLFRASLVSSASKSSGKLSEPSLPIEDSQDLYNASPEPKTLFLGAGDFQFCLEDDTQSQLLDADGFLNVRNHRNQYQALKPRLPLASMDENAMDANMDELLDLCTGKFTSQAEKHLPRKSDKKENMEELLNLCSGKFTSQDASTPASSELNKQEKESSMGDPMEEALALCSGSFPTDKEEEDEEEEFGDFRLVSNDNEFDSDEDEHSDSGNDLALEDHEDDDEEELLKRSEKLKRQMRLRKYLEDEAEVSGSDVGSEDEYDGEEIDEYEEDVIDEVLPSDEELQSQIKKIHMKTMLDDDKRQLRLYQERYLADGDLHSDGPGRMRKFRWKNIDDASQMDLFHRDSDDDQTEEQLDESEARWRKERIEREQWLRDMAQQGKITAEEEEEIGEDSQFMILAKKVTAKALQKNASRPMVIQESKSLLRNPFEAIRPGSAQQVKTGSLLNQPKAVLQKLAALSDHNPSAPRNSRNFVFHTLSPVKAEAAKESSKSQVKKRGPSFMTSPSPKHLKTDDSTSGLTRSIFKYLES

B1: TIMELESS (natural protein, human)
chain: MDLHMMNCELLATCSALGYLEGDTYHKEPDCLESVKDLIRYLRHEDETRDVRQQLGAAQILQSDLLPILTQHHQDKPLFDAVIRLMVNLTQPALLCFGNLPKEPSFRHHFLQVLTYLQAYKEAFASEKAFGVLSETLYELLQLGWEERQEEDNLLIERILLLVRNILHVPADLDQEKKIDDDASAHDQLLWAIHLSGLDDLLLFLASSSAEEQWSLHVLEIVSLMFRDQNPEQLAGVGQGRLAQERSADFAELEVLRQREMAEKKTRALQRGNRHSRFGGSYIVQGLKSIGERDLIFHKGLHNLRNYSSDLGKQPKKVPKRRQAARELSIQRRSALNVRLFLRDFCSEFLENCYNRLMGSVKDHLLREKAQQHDETYYMWALAFFMAFNRAASFRPGLVSETLSVRTFHFIEQNLTNYYEMMLTDRKEAASWARRMHLALKAYQELLATVNEMDISPDEAVRESSRIIKNNIFYVMEYRELFLALFRKFDERCQPRSFLRDLVETTHLFLKMLERFCRSRGNLVVQNKQKKRRKKKKKVLDQAIVSGNVPSSPEEVEAVWPALAEQLQCCAQNSELSMDSVVPFDAASEVPVEEQRAEAMVRIQDCLLAGQAPQALTLLRSAREVWPEGDVFGSQDISPEEEIQLLKQILSAPLPRQQGPEERGAEEEEEEEEEEEEELQVVQVSEKEFNFLDYLKRFACSTVVRAYVLLLRSYQQNSAHTNHCIVKMLHRLAHDLKMEALLFQLSVFCLFNRLLSDPAAGAYKELVTFAKYILGKFFALAAVNQKAFVELLFWKNTAVVREMTEGYGSLDDRSSSRRAPTWSPEEEAHLRELYLANKDVEGQDVVEAILAHLNTVPRTRKQIIHHLVQMGLADSVKDFQRKGTHIVLWTGDQELELQRLFEEFRDSDDVLGHIMKNITAKRSRARIVDKLLALGLVAERRELYKKRQKKLASSILPNGAESLKDFCQEDLEEEENLPEEDSEEEEEGGSEAEQVQGSLVLSNENLGQSLHQEGFSIPLLWLQNCLIRAADDREEDGCSQAVPLVPLTEENEEAMENEQFQQLLRKLGVRPPASGQETFWRIPAKLSPTQLRRAAASLSQPEEEQKLQPELQPKVPGEQGSDEEHCKEHRAQALRALLLAHKKKAGLASPEEEDAVGKEPLKAAPKKRQLLDSDEEQEEDEGRNRAPELGAPGIQKKKRYQIEDDEDD
notes: Stood in the structure as a subunit of m3; residues 7-803 modelled (527-684 not visualised)
B1: binds.
